Experiment [1] concerns the target human IGF-II (human). Put plainly: SPR; BIAcore T100, CM5 chip; human IGF-I (120 RU) or IGF-II (138 RU) amine-coupled; IGFBP-1s injected 60 s, 5 min dissociation; 25 C, HBS (10 mM HEPES, 150 mM NaCl, 3 uM EDTA, 0.05% TWEEN-20, pH 7.4), 30 uL/min; 1:1 model fitted globally, KD = kd/ka.
Experiment [2] has as its target human IGF-I (human) (UniProt P05019). Described as above.

pKd: −log10 of the molar value.

Sequence of human IGFBP-1 (P08833 26-259): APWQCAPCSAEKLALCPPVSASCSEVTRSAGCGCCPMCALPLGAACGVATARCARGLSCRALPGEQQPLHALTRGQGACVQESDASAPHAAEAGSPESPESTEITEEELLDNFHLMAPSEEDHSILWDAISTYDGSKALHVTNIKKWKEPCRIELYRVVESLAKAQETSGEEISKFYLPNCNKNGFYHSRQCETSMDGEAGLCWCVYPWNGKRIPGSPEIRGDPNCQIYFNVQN
Sequence of human IGF-I (human) (P05019 49-118): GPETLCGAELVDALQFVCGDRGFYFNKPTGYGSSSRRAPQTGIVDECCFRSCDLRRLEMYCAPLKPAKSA

In experiment [1], “human IGFBP-1 (from UniProt P08833 26-259) (natural protein)” gave a pKd of 8.06, a koff of 0.000457 s⁻¹ and a kon of 53000 M⁻¹ s⁻¹.

In experiment [2], zebrafish IGFBP-1a (natural protein) had a pKd of 9.55, a koff of 0.000332 s⁻¹ and a kon of 1.18e+06 M⁻¹ s⁻¹. Further, in experiment [1], the pKd is 9.47, the koff was determined as 0.00029 s⁻¹ and the kon was determined as 867000 M⁻¹ s⁻¹.

With “zebrafish IGFBP-1b (from UniProt A4K8J2 1-244) (natural protein)”, in experiment [1], the pKd is 8.03, the koff came to 0.00926 s⁻¹ and the kon worked out at 993000 M⁻¹ s⁻¹.

For the origin of these results see publication PMC2518108.
